# B1: TPR t1 (parent)
# chain: GACCAAUCUGCCCUCAGAGCUCGAGAACAUCUUCGGAUGCAGAGGAGGCAGGCUUCGGUGGCGCGAUAGCGCCAACGUCCUCAACCUCCAAUGCAUCCCACCACAUGAUGAUGCCUGAAGAGCCUUGGUUUUUUG
# Variants of: B1
# Experiment: polymerase ribozyme fitness, log enrichment relative to wild type (log ratio); higher = more active; in vitro selection for triplet polymerase activity
# Procedure, shortened: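 Frozen incubation at −7 °C formed the core of a single, triplicate in vitro selection round applied to PCR-built, transcribed mutant libraries of each subunit of a heterodimeric triplet polymerase ribozyme. Extended constructs were gel-excised, captured with streptavidin beads and amplified by RT-PCR, and input and output libraries were Illumina-sequenced with a filter of ≥10 input reads and ≥1 read per output. Fitness is the logarithm of genotype enrichment relative to wild-type enrichment, with inverse-variance-weighted replicate averaging, and the logarithm is base 2.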
row,Variant,polymerase ribozyme fitness (log ratio)
1,A46U C49G,-1.75
2,A68U C124G,-4.93
3,G17U C20A G61U U87A,-4.07
4,G63A C88U C97U G113C,-4.04
5,U7C U78C C85A C124G,-0.586
6,U78C C82U C123G G127C,-1.21
7,A6U A37G C56U,0.28
8,G10C U38G C85U G122A C123G,0.725
9,C3U C8A G57U G77U C79U A83C C89U C101G,-3.64
10,C22G G39U,-3.5
11,G36C C102A,-3.12
12,G60A C123U,1.14
13,C56A C72A C76U U116G,-3.97
14,G44A A75U A118G,-1.19
15,C72U G117C G120U U131G,-5.53
16,A41U C89U U116A,-4.32
17,A37C G60U U96A G110C U134A,-2.04
18,U38G A46C C101U,-2.55
19,C8G C12G,0.399
20,C8A C20A G71U,-2.77
21,C13A A37G,-2.27

row,Variant,polymerase ribozyme fitness (log ratio)
1,C8U G71A C98U G117U U130C,-4.47
2,U9G U38G,-0.556
3,C3U C49A A84C C104U G120U,-0.46
4,A50U U59A,-0.619
5,A6U A103G,-4.63
6,G45C U129C,-2.28
7,G42A C89U,-1.16
8,C8A G61C G122A,-0.605
9,C13G C73A U81G A121G,-1.23
10,G48A C97A,-5.22
11,C79A G110C,-5.36
12,U9G U14A A46U A68G,-4.4
13,A83G U129G,-1.68
14,C4A C8A U9C C82U C114U,-2.35
15,C11G U96A U112A G122A G128C,-1.26
16,G52C C70A G117U G120U,-4.71
17,C20G G39C A90U C94U G113U C115U U116G,-1.36
18,C53U C80U U81C,-4.05
19,U9G A18U C56A U87G,-2.1
20,C49G U54C G63C C88G U106G,-5.67
21,G42U C62A,-3.21

row,Variant,polymerase ribozyme fitness (log ratio)
1,C13G A26G,-3.54
2,G19A C76A C89G,-4.06
3,C31U C85A U106A,-2.67
4,G36U C73A C124U,0.315
5,A74C C97U G120A G122A,-1.46
6,G69U U81C G120C G122A G128A,-3.32
7,C94A U132A,-0.269
8,G42C C72U G113C,-2.98
9,A5C G77A,-0.654
10,G60U C115A,0.226
11,C88A U109A,-5.8
12,G45U C94U,-1.46
13,A91G G113A,-1.95
14,C12A G69A A90U U109A C115A,-7.7
15,U32C C124G G135U,0.917
16,C56G G117A,-2.32
17,C34G C53U G61U C73U G113C C114G,-8.49
18,A5U G69U G110A,-0.583
19,A5G U9C C124U,1.89
20,C12G G44A G63A U112G G122U G135U,-2.91
21,C12U G71U A90G A121G,1.71

row,Variant,polymerase ribozyme fitness (log ratio)
1,A26U C82U,-3.73
2,G44A C99A C114A,-5.96
3,C12G A18C C56U C80U U112G,-4.94
4,A46U C49U C72A,0.459
5,A18C G61A C85G,-3.25
6,U21A A103U,-6.15
7,C20U A95G,-1.47
8,U32C G42U A43U U87C C94A C101U C102U,-5.8
9,G110U U112A,-2.85
10,A6U U38G C73U U125A,-1.49
11,G47A A111U,-4.17
12,G93C A95C,-0.938
13,G47C G77U C88A C97U G113C G117C,-6.98
14,A41U G69C U78C A100U,-6.25
15,C70G C82U,-3.14
16,U112C G120C,0.72
17,A16G U129G,-3.64
18,C40A G71A U125A,-2.51
19,A90U C101A,-3.3
20,C31A C88U A121G,-2.7

# — the RNAGym collection of RNA variant scans (doi:10.1073/pnas.2313332121)
